According to publication PMC7954794, “Protein context shapes the specificity of SH3 domain-mediated interactions in vivo” (Nature Communications, 2021):

Tested on: PPIs identified as affected by the SH3 domain deletions
Experiment: Liquid DHFR-PCA low-throughput validation of PPIs affected by SH3 deletion (Fig. S1D-E)
Format: cell-based, Saccharomyces cerevisiae
Conditions: label = prey, liquid DHFR-PCA, prey _1 = lost, _2 = gained in screen
Procedure, shortened: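 Growth at 30 °C was tracked by OD each 15 min over 72 h in agar-free PCA selection medium, starting at 0.1 OD. Cells were diploids selected after mating, first cultured 48 h with NAT and HPH in synthetic complete MSG medium, pH 6.0.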

B1: YML035C_1 (protein, UniProt P15274 1-810, looked up)
AMP deaminase: MDNQATQRLNDLSLEPAPSHDEQDGSGLVIDIDQRKIGDEQAGVVVDDETPPLEQQDSHESLAADSRNANFSYHENQQLLENGTKQLALDEHDSHSAILEQPSHSTNCSSSNIAAMNKGHDSADHASQNSGGKPRTLSASAQHILPETLKSFAGAPVVNKQVRTSASYKMGMLADDASQQFLDDPSSELIDLYSKVAECRNLRAKYQTISVQNDDQNPKNKPGWVVYPPPPKPSYNSDTKTVVPVTNKPDAEVFDFTKCEIPGEDPDWEFTLNDDDSYVVHRSGKTDELIAQIPTLRDYYLDLEKMISISSDGPAKSFAYRRLQYLEARWNLYYLLNEYQETSVSKRNPHRDFYNVRKVDTHVHHSACMNQKHLLRFIKHKLRHSKDEKVIFRDGKLLTLDEVFRSLHLTGYDLSIDTLDMHAHKDTFHRFDKFNLKYNPIGESRLREIFLKTNNYIKGTYLADITKQVIFDLENSKYQNCEYRISVYGRSLDEWDKLASWVIDNKVISHNVRWLVQIPRLYDIYKKTGIVQSFQDICKNLFQPLFEVTKNPQSHPKLHVFLQRVIGFDSVDDESKVDRRFHRKYPKPSLWEAPQNPPYSYYLYYLYSNVASLNQWRAKRGFNTLVLRPHCGEAGDPEHLVSAYLLAHGISHGILLRKVPFVQYLYYLDQVGIAMSPLSNNALFLTYDKNPFPRYFKRGLNVSLSTDDPLQFSYTREPLIEEYSVAAQIYKLSNVDMCELARNSVLQSGWEAQIKKHWIGKDFDKSGVEGNDVVRTNVPDIRINYRYDTLSTELELVNHFANFKRTIEEK
Ratio (Deletedscore / WTscore) (bait): 0.7244

B2: YJL095W_1 (protein, UniProt Q01389 1-1478, looked up)
Serine/threonine-protein …: MPFLRKIAGTAHTHSRSDSNSSVKFGHQPTSSVASTKSSSKSPRATSRKSIYDDIRSQFPNLTPNSTSSQFYESTPVIEQSFNWTTDDHISAGTLENPTSFTNSSYKNDNGPSSLSDSRKSSGGNSVNSLSFDKLILSWDPTDPDEWTMHRVTSWFKFHDFPESWILFFKKHQLFGHRFIKLLAYDNFAVYEKYLPQTKTASYTRFQQLLKKTMTKNVTNSHIRQKSASKLKSSRSSSESIKSKLKNSKSQEDISNSRSTSESALSPTKSGPSKTDEKNFLHSTSTHQKTKSASSLYRRSFISLRGSSSSNASSAKSPSNIKLSIPARPHSIIESNSTLTKSASPPASPSYPSIFRRHHKSSSSESSLLNSLFGSGIGEEAPTKPNPQGHSLSSENLAKGKSKHYETNVSSPLKQSSLPTSDDKGNLWNKFKRKSQIGVPSPNTVAYVTSQETPSLKSNSSTATLTVQTADVNIPSPSSSPPPIPKTANRSLEVISTEDTPKISSTTASFKETYPDCINPDKTVPVPVNNQKYSVKNFLLDQKFYPLKKTGLNDSENKYILVTKDNVSFVPLNLKSVAKLSSFKESALTKLGINHKNVTFHMTDFDCDIGAAIPDDTLEFLKKSLFLNTSGKIYIKDQMKLQQKPKPAPLTSENNVPLKSVKSKSSMRSGTSSLIASTDDVSIVTSSSDITSFDEHASGSGRRYPQTPSYYYDRVSNTNPTEELNYWNIKEVLSHEENAPKMVFKTSPKLELNLPDKGSKLNIPTPITENESKSSFQVLRKDEGTEIDFNHRRESPYTKPELAPKREAPKPPANTSPQRTLSTSKQNKPIRLVRASTKISRSKRSKPLPPQLLSSPIEASSSSPDSLTSSYTPASTHVLIPQPYKGANDVMRRLKTDQDSTSTSPSLKMKQKVNRSNSTVSTSNSIFYSPSPLLKRGNSKRVVSSTSAADIFEENDITFADAPPMFDSDDSDDDSSSSDDIIWSKKKTAPETNNENKKDEKSDNSSTHSDEIFYDSQTQDKMERKMTFRPSPEVVYQNLEKFFPRANLDKPITEGIASPTSPKSLDSLLSPKNVASSRTEPSTPSRPVPPDSSYEFIQDGLNGKNKPLNQAKTPKRTKTIRTIAHEASLARKNSVKLKRQNTKMWGTRMVEVTENHMVSINKAKNSKGEYKEFAWMKGEMIGKGSFGAVYLCLNVTTGEMMAVKQVEVPKYSSQNEAILSTVEALRSEVSTLKDLDHLNIVQYLGFENKNNIYSLFLEYVAGGSVGSLIRMYGRFDEPLIKHLTTQVLKGLAYLHSKGILHRDMKADNLLLDQDGICKISDFGISRKSKDIYSNSDMTMRGTVFWMAPEMVDTKQGYSAKVDIWSLGCIVLEMFAGKRPWSNLEVVAAMFKIGKSKSAPPIPEDTLPLISQIGRNFLDACFEINPEKRPTANELLSHPFSEVNETFNFKSTRLAKFIKSNDKLNSSKLRITSQENKTE
Ratio (Deletedscore / WTscore) (bait NBP2): 0.6492

B3: YGL060W_1 (protein, UniProt P53169 1-641, looked up)
YAP1-binding protein 2: MYNEQVNSGKSIKEKERYLDALLKILKDNPVTLKEIGWDLPKGLLQFFSRKNINVNIHLVFSPLVSSVMECFNELAINGNPKECLLTACELVSTLHIVLTETGDSDEENEDLNDSNRNDASNITDELSVITPEIGHYMAKNTVEFIPNLKIYVLFEFMSLLLKRVDTLYPSKFLAMVTSAIIKYVTTNVQAMDDPHFILRIVYNFCTNYSPAQPSASLTDGISTNDLEKIHDDESALQKKLLANLSVFVISNCLKNHPGNIDKIYFKTLMHKKTDENEIDASVLQICHQYYEYVTSLDVHMKELLEKCLVESRSIYNSLLMNPAASTPEFKEEINQLVYEVSYAYQIKKLADEKNLELDQYGVVILSAIHYSKNGTHLLPQIDIQSAIYLYLRCTTASLFSEIYENKFLESSVRYWLWVSTTETSTEKIKCALQELPGHITTAFLQMLLMKTCNESNNDTKLTEITLLRRLLYLMPESTSFTFIFETLLHCPYITAKIAVLDILRDMMIRSPEAANRDETVGLIEQQNPGNTANSVPIMPTLPPRPYITINEDRMASIHSIALICFSAAKQKKRTQGDLLLVLTYMKFFVSLRNKWDLGLLTLINKEISESFQGEGEPELAFINISNNTLGEYIEEMNIRS
Ratio (Deletedscore / WTscore) (bait RVS167): 0.4505

B4: YGL153W_2 (protein, UniProt P53112 2-341, looked up)
Peroxisomal membrane protein …: SDVVSKDRKALFDSAVSFLKDESIKDAPLLKKIEFLKSKGLTEKEIEIAMKEPKKDGIVGDEVSKKIGSTENRASQDMYLYEAMPPTLPHRDWKDYFVMATATAGLLYGAYEVTRRYVIPNILPEAKSKLEGDKKEIDDQFSKIDTVLNAIEAEQAEFRKKESETLKELSDTIAELKQALVQTTRSREKIEDEFRIVKLEVVNMQNTIDKFVSDNDGMQELNNIQKEMESLKSLMNNRMESGNAQDNRLFSISPNGIPGIDTIPSASEILAKMGMQEESDKEKENGSDANKDDNAVPAWKKAREQTIDSNASIPEWQKNTAANEISVPDWQNGQVEDSIP
Ratio (Deletedscore / WTscore) (bait BEM1-1): 1.295

B5: YDL160C_1 (protein, UniProt P39517 1-506, looked up)
ATP-dependent RNA helicase …: MGSINNNFNTNNNSNTDLDRDWKTALNIPKKDTRPQTDDVLNTKGNTFEDFYLKRELLMGIFEAGFEKPSPIQEEAIPVAITGRDILARAKNGTGKTAAFVIPTLEKVKPKLNKIQALIMVPTRELALQTSQVVRTLGKHCGISCMVTTGGTNLRDDILRLNETVHILVGTPGRVLDLASRKVADLSDCSLFIMDEADKMLSRDFKTIIEQILSFLPPTHQSLLFSATFPLTVKEFMVKHLHKPYEINLMEELTLKGITQYYAFVEERQKLHCLNTLFSKLQINQAIIFCNSTNRVELLAKKITDLGYSCYYSHARMKQQERNKVFHEFRQGKVRTLVCSDLLTRGIDIQAVNVVINFDFPKTAETYLHRIGRSGRFGHLGLAINLINWNDRFNLYKIEQELGTEIAAIPATIDKSLYVAENDETVPVPFPIEQQSYHQQAIPQQQLPSQQQFAIPPQQHHPQFMVPPSHQQQQAYPPPQMPSQQGYPPQQEHFMAMPPGQSQPQY
Ratio (Deletedscore / WTscore) (bait RVS167): 0.8286

B6: YDR329C_2 (protein, UniProt P28795 1-441, looked up)
Peroxisomal biogenesis factor …: MAPNQRSRSLLQRHRGKVLISLTGIAALFTTGSVVVFFVKRWLYKQQLRITEQHFIKEQIKRRFEQTQEDSLYTIYELLPVWRMVLNENDLNLDSIVTQLKDQKNQLTRAKSSESRESSPLKSKAELWNELELKSLIKLVTVTYTVSSLILLTRLQLNILTRNEYLDSAIKLTMQQENCNKLQNRFYNWVTSWWSDPEDKADDAMVMAAKKSKKEGQEVYINEQAFLSLSWWILNKGWLSYNEIITNQIEIEFDGIHPRDTLTLEEFSSRLTNIFRNTNSQIFQQNNNNLTSILLPKDSSGQEFLLSQTLDADALTSFHSNTLVFNQLVNELTQCIESTATSIVLESLINESFHFIMNKVGIKTIAKKKPGQEDQQQYQMAVFAMSMKDCCQEMLQTTAGSSHSGSVNEYLATLDSVQPLDDLSASVYSNFGVSSSFSFKP
Ratio (Deletedscore / WTscore) (bait BEM1-1): 1.085

B7: YOL100W_1 (protein, UniProt Q12236 1-1081, looked up)
Serine/threonine-protein …: MYFDKDNSMSPRPLLPSDEQKLNINLLTKKEKFSHLDPHYDAKATPQRSTSNRNVGDLLLEKRTAKPMIQKALTNTDNFIEMYHNQQRKNLDDDTIKEVMINDENGKTVASTNDGRYDNDYDNNDINDQKTLDNIAGSPHMEKNRNKVKIEHDSSSQKPIAKESSKAQKNIIKKGIKDFKFGSVIGDGAYSTVMLATSIDTKKRYAAKVLNKEYLIRQKKVKYVSIEKTALQKLNNSPSVVRLFSTFQDESSLYFLLEYAPNGDFLSLMKKYGSLDETCARYYAAQIIDAIDYLHSNGIIHRDIKPENILLDGEMKIKLTDFGTAKLLNPTNNSVSKPEYDLSTRSKSFVGTAEYVSPELLNDSFTDYRCDIWAFGCILFQMIAGKPPFKATNEYLTFQKVMKVQYAFTPGFPLIIRDLVKKILVKNLDRRLTISQIKEHHFFKDLNFKDGSVWSKTPPEIKPYKINAKSMQAMPSGSDRKLVKKSVNTLGKSHLVTQRSASSPSVEETTHSTLYNNNTHASTESEISIKKRPTDERTAQILENARKGINNRKNQPGKRTPSGAASAALAASAALTKKTMQSYPTSSSKSSRSSSPATTSRPGTYKRTSSTESKPFAKSPPLSASVLSSKVPMPPYTPPMSPPMTPYDTYQMTPPYTTKQQDYSDTAIAAPKPCISKQNVKNSTDSPLMNKQDIQWSFYLKNINEHVLRTEKLDFVTTNYDILEKKMLKLNGSLLDPQLFGKPRHTFLSQVARSGGEVTGFRNDPTMTAYSKTEDTYYSKNIIDLQLLEDDYRIEGGDLSELLTNRSGEGYKCNQNSSPMKDDDKSESNNKGSSVFSGKIKKLFHPTSAAETLSSSDEKTKYYKRTIVMTSFGRFLVFAKRRQPNPVTNLKYELEYDINLRQQGTKIKELIIPLEMGTNHIVVIQTPYKSFLLSTDKKTTSKLFTVLKKILNSNTNKIEKELLQRNQKVIERRTSSSGRAIPKDLPTSKSPSPKPRTHSQSPSISKHNSFSESINSAKSNRSSRIFETFINAKEQNSKKHAAPVPLTSKLVNGLPKRQVTVGLGLNTGTNFKNSSAKSKRS
Ratio (Deletedscore / WTscore) (bait MYO3): 0.53
